Experimental data taken from patent publication US20100293752, “DEVICE FOR DECELERATING THE ROTATION OF A HINGE IN PARTICULAR FOR FURNITURE AND A HINGE PARTICULARLY FOR FURNITURE HAVING SAID DECELERATION DEVICE” (published 2010).

Biological target: osteopontin (OPN) (Homo sapiens, UniProt P10451 P10451:17-314)
Test: filter; double-filter nitrocellulose, selection buffer, 37 C; OPN species not specified for this assay
Conditions: label: 5'-32P; stem-loop (predicted, mFold)
Procedure: The RNA-protein equilibrium dissociation constant (Kd) of OPN-R3 was characterized using the double-filter nitrocellulose filter binding method (Gopinath, Anal. Bioanal. Chem. 387:171 (2007)). For all binding assays, RNAs were dephosphorylated using bacterial alkaline phosphatase (Invitrogen, Carlsbad, Calif.) and 5′-end labeled using T4 polynucleotide kinase (New England Biolabs, Beverly, Mass.) and γ-³²P-ATP (MP Biomedicals, Solon, Ohio). Direct binding assays were carried out by incubating ³²P-labeled RNA at a concentration of less than 0.1 nM and target protein at concentrations ranging from 300 nM to 10 μM in selection buffer at 37° C. The fraction of RNA bound was quantified with a PhosphorImager (Molecular Dynamics, Sunnyvale, Calif.). Raw binding data were corrected for nonspecific background binding of radiolabeled RNA to the nitrocellulose filter.

osteopontin (OPN), sequence (P10451 17-314, one chain of several): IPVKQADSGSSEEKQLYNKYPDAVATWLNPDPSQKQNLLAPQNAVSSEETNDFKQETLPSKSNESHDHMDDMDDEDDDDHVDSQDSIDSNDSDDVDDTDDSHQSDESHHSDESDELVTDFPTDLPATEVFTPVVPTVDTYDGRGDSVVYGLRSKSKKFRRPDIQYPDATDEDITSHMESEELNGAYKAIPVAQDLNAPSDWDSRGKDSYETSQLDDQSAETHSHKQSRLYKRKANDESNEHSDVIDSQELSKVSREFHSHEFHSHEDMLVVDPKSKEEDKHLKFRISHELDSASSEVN

B1: OPN-R3 32P-labelled (ssRNA)
RNA: CGGCCACAGAAUGAAAAACCUCAUCGAUGUUGCAUAGUUG
modifications: 2'-F on all C and U
  Kd: 18 nM
